Laboratory results from patent US20090018083A1.

Assays:
[1] = target: T1, BCL6-3C BTB domain (human BCL6 residues 5-129 with C8Q/C67R/C84N) (human), P41182; assay: ITC in solution, 25° C; conditions: remark: other sources report otherwise
[2] = target: T1, BCL6-3C BTB domain (human BCL6 residues …); assay: ITC in solution, 25° C; ITC in solution, not SPR; conditions: remark: other sources report otherwise

-TΔS [1]: 16.4 | stoichiometry (SMRT peptides per BCL6 chain) (SMRT peptides per BCL6 chain) [1]: 1.11 | ΔH [1]: -23.2 kcal/mol | Kd [2]: 11.4 µM
Binder: LVATVKEAGRSIHEIPR [SMRT^1414-1430 peptide (SMRT-BBD), no additional N-terminal residues]
